Source: the supplement of paper PMC9170038

Test system: MS2 coat protein
Assay: apparent KD of MS2 coat protein; higher = weaker reporter binding
Details: Eterna round: R107
How it was run: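 Illumina sequencing clusters were used for on-chip transcription of designed RNA switches. Titration with SNAP-549-labelled MS2 coat protein followed, in twofold steps from 0.7 or 1.5 nM to 3 µM in 100 mM Tris-HCl pH 7.5, 80 mM KCl, 4 mM MgCl2, without or with constant ligand. Apparent KD is each design's median of fits to normalised cluster binding curves.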

[1] = input ligand: theophylline 20 uM
[2] = input ligand: theophylline 2 mM
[3] = input ligand: tryptophan 2.4 mM

Row | Sequence | apparent KD of MS2 coat protein (input ligand: arginine 13.2 mM) | apparent KD of MS2 coat protein [1] | apparent KD of MS2 coat protein [2] | apparent KD of MS2 coat protein (input ligand: none) | apparent KD of MS2 coat protein [3]
1 | UACUGUCUAACGGCCGCCACUCAGUCUCGGUUGAUUAUCUUAAGUGACAUGAGGAUCACCCAUGUGAGGACCGGGUUGUGCAUAA [theeternabot_exclusion_MS2_Trp_B_40] | 60.4 nM | 91.3 nM | 96.7 nM | – | –
2 | UAUAUAUAUCACUAACUGUUCUUGAGGUCUCGAGGACCGGUACGGCCGCCACUCGUACCGCCUCACAUGAGGAUCACCCAUGUCC [XTryp A #1] | 52.2 nM | 85.5 nM | 97.6 nM | – | –
3 | UAUCCACAUGAGGAUCACCCAUGUAGGGAAGGAGCGGUGGAUGCACCAGGUAGGUCGCCUUGCUGAGGACAGCCGGUGGAUUCGU [Exclusion - Arginine A (Freestyle 27)] | 29 nM | 59.6 nM | 46.7 nM | 31.9 nM | 32.8 nM
4 | UAUCCACAUGAGGAUCACCCAUGUUAGGAAGGAGCGGUGAAUGAACCAGGUAGGUCGCCUAGCUGAGGACUGUCGAUGGAUUCGU [Exclusion - Arginine A (Freestyle 17)] | 13.4 nM | 28.2 nM | 24.5 nM | 18.1 nM | 20.5 nM
5 | UAUCCACAUGAGGAUCACCCAUGUUAGGAAGGAGCGGUGAAUGAACCAGGUAGGUCGCCUAGGUGAGGAUCAUCUAUGGAUUCGU [Exclusion - Arginine A (Freestyle 11)] | 30 nM | 37.3 nM | 38.3 nM | 30.2 nM | 31.7 nM
6 | UAUCGUCAGACGGCCGCCACUAGAACAUGAGGAUCACCCAUGUACGGCCGCUCGGUCCUCAUGACUAGGACCGGGUCUGACGAAU [(Trp1)-(Ms2)-(T)'-(M)'-(Trp2)_Design22] | 10.8 nM | 16.9 nM | 12 nM | 7.31 nM | 9.96 nM
7 | UAUCGUCAGACGGCCGCCACUAGAACAUGAGGAUCACCCAUGUAGGCGGCCGAUUCCUCAUUAACUAGGACCGGGUCUGACGAAU [(Trp1)-(Ms2)-(T)'-(M)'-(Trp2)_Design11] | 11.5 nM | 15.9 nM | 9.76 nM | – | –
8 | UAUUAUCAGUCGGCCGCCACUGACACAUGAGGAUCACCCAUGUAAUUUGGGUUAUAUAGAAAAUACAGGACCGGGACUAAGGCUA [JR_ExcTryptoB_Sub014] | 87.5 nM | 324 nM | 326 nM | – | –
9 | UAUUAUCAGUCGGCCGCCACUGACACAUGAGGAUCACCCAUGUAAUUUGGGUUAUAUAUAAAUUACAGGACCGGGACAAAGGCUA [JR_ExcTryptoB_Sub013] | 114 nM | 318 nM | 396 nM | – | –
10 | UAUUAUCAGUCGGCCGCCACUGACACAUGAGGAUCACCCAUGUAAUUUGGGUUAUAUAUAAAUUACAGGACCGGGACAAAUGCUA [JR_Nu13_ExcTryptoB_Sub025] | 161 nM | 366 nM | 368 nM | – | –
11 | UAUUAUCAGUCGGCCGCCACUGUCACAUGAGGAUCACCCAUGUAACUUGGGUUAUAUUUAAUAUACAGGACCGGGACAAAGGCUA [JR_ExcTryptoB_Sub012] | 61.5 nM | 76.6 nM | 66.8 nM | – | –
12 | UCAAUAAUUAGAUUGUUACAUGUAUCAGAAGGAGCGUGAGUAAUCACAGGUAGGUCGCUGUUAACAUGAGGAUCACCCAUGUUUU [JR_ExcArginiA_Sub009] | 31.2 nM | 43.6 nM | 39.2 nM | 40.9 nM | 36.8 nM
13 | UCACAUGAGGAUCACCCAUGUACAGGCGAUACCAGCCGUACAUUGGGCCCUUGGCAGCGCAUCGAGACCUUUAUAAGCACCUCGG [Ceusbi] | 24.5 nM | 127 nM | – | – | 81.6 nM
14 | UCACAUGAGGAUCACCCAUGUCAUGUUGAAGGAGCGACCAGGAGGUCAGGUAGGUCGCAACACAUGAGGAUCACCCAUGUGGCCC [Qetesh] | 87.5 nM | 119 nM | 159 nM | 172 nM | 149 nM
15 | UCACGAGGCCUGGAUACCAGCGACAUGAGGAUCACCCAUGUAUGAGGAUCAGCCAUGUUAUGCCCUUGGCAGCCACGAAGGUCAU [XZZMULLIN] | 14.5 nM | 26.5 nM | – | – | 15.8 nM
